# From article PMC13182210, “Time‐Resolved Native Mass Spectrometry Reveals Reversible Light‐Driven Oligomerization of Arabidopsis Cryptochrome 1 and Its Antagonism by BIC1” (Angewandte Chemie (International Ed. in English), 2026)
# B1: Blue-light Inhibitor of Cryptochromes 1 (BIC1) (natural protein, UniProt Q9LXJ1 1-140, looked up)
# chain: MMNIDDTTSPMAHPIGPSQPPSDQTKQDPPSLPQEAASSVSADKKDLALLEEKPKQSQEEDRVDTGRERLKKHRREIAGRVWIPEIWGQEELLKDWIDCSTFDTCLVPAGISSARTALVEEARRAASASGGLHNRCLILR
# notes: The calculated mass may include a tag; Construct details probably stand in the Supporting Information
# B2: Arabidopsis thaliana cryptochrome 1 photolyase homology region (CRY1-PHR) (domain or fragment, UniProt Q43125 1-509, looked up)
# chain: MSGSVSGCGSGGCSIVWFRRDLRVEDNPALAAAVRAGPVIALFVWAPEEEGHYHPGRVSRWWLKNSLAQLDSSLRSLGTCLITKRSTDSVASLLDVVKSTGASQIFFNHLYDPLSLVRDHRAKDVLTAQGIAVRSFNADLLYEPWEVTDELGRPFSMFAAFWERCLSMPYDPESPLLPPKKIISGDVSKCVADPLVFEDDSEKGSNALLARAWSPGWSNGDKALTTFINGPLLEYSKNRRKADSATTSFLSPHLHFGEVSVRKVFHLVRIKQVAWANEGNEAGEESVNLFLKSIGLREYSRYISFNHPYSHERPLLGHLKFFPWAVDENYFKAWRQGRTGYPLVDAGMRELWATGWLHDRIRVVVSSFFVKVLQLPWRWGMKYFWDTLLDADLESDALGWQYITGTLPDSREFDRIDNPQFEGYKFDPNGEYVRRWLPELSRLPTDWIHHPWNAPESVLQAAGIELGSNYPLPIVGLDEAKARLHEALSQMWQLEAASRAAIENGSEEG
# notes: Cryptochrome 1 of Arabidopsis thaliana, photolyase homology region (PHR) domain; Construct limits, tags and host are not in the main text and probably stand in the Supporting Information; The oligomeric state depends on light: mostly monomer in the dark, tetramer under blue light; also called CRY1 PHR domain; wild-type CRY1; source: recombinant, purified
# Legend:
# [1] = molecular target: CRY1^L407F mutant of the Arabidopsis CRY1 PHR domain (Arabidopsis thaliana) (UniProt Q43125); experiment: native MS; LILBID-MS in darkness; CRY1 alone or with BIC1 in an equimolar ratio
# [2] = molecular target: CRY1^L407F mutant of the Arabidopsis CRY1 PHR domain (Arabidopsis thaliana) (UniProt Q43125); experiment: SEC; analytical size exclusion chromatography, samples kept in darkness
# [3] = molecular target: CRY1^L407F mutant of the Arabidopsis CRY1 PHR domain (Arabidopsis thaliana) (UniProt Q43125); experiment: native MS; quantitative LILBID-MS (qLILBID-MS), label-free, in the dark; mean of three measurements
# [4] = molecular target: B2; experiment: native MS; quantitative LILBID-MS (qLILBID-MS), label-free, under blue light; mean of three measurements; conditions: both partners purified
# [5] = molecular target: B2; experiment: native MS; quantitative LILBID-MS (qLILBID-MS), label-free, in the dark; mean of three measurements; conditions: both partners purified
# [6] = molecular target: the molecule itself; experiment: native MS; LILBID-MS with a blue-light LED on the sample throughout; CRY1 alone, with BIC1 in an equimolar ratio, or BIC1 added to pre-illuminated tetrameric CRY1
# [7] = molecular target: the molecule itself; experiment: native MS; nESI-MS with a blue-light LED on the sample, static and time-resolved, with 100 µM ATP; two-step reversible kinetic model monomer to dimer to tetramer
# [8] = molecular target: the molecule itself; experiment: native MS; nESI-MS with a blue-light LED on the sample, static and time-resolved, room temperature, no ATP; two-step reversible kinetic model monomer to dimer to tetramer
molecule,measurement,setting,value
CRY1^L407F mutant of the Arabidopsis CRY1 PHR domain (from UniProt Q43125 1-681) (domain or fragment),stoichiometry N,[1],4
same,stoichiometry N,[2],4
B1,Kd,[3],100 nM
same,Kd,[4],130 ± 90 nM
same,Kd,[5],~1200 nM
B2,stoichiometry N,[6],4
same,fold decrease of dimer dissociation rate with 100 µM ATP against no ATP,[7],~10 fold
same,fold decrease of tetramer dissociation rate with 100 µM ATP against no ATP,[7],~2 fold
same,fold increase of dimer-to-tetramer association rate with 100 µM ATP against no ATP,[7],4 fold
same,fold increase of monomer-to-dimer association rate with 100 µM ATP against no ATP,[7],~2 fold
same,half-life of tetramer formation (single-exponential fit),[8],~18 s
